Values quoted from earlier work as cited in PMC3749136.

Biological target: EGF-R pY1092 peptide pY1092 peptide (Homo sapiens) (UniProt P00533)
Details: cited from earlier work

Sequence of SOCS4 SH2 (Q8WXH5 283-384): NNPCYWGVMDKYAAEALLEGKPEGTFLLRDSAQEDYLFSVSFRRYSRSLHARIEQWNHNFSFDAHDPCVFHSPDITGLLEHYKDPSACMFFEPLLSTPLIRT

For SOCS4 SH2 (from UniProt Q8WXH5), the Kd is listed as 500 nM.
